In patent US20160031996A1 (CSL, published 2016):

How the values were obtained:
Assay in all cases: Western blot, supernatants of 293FS cells
[1] = target: T1, soluble human IL-3Rα 1-306-His F90A (human, UniProt P26951 19-307)
T1 construct: supernatant of 293FS cells; also called F90, soluble alanine
T1 sequence: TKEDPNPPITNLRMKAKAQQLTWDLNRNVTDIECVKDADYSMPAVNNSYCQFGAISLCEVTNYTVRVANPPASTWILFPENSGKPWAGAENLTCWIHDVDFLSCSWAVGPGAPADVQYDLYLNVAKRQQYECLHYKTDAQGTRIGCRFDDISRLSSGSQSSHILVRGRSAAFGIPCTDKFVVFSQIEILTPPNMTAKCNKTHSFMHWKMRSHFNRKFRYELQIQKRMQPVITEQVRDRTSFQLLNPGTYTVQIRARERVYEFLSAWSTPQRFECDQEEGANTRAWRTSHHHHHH

[2] = target: T2, soluble human IL-3Rα 1-306-His F70A (human, UniProt P26951 19-307)
T2 construct: supernatant of 293FS cells; also called F70, soluble alanine
T2 sequence: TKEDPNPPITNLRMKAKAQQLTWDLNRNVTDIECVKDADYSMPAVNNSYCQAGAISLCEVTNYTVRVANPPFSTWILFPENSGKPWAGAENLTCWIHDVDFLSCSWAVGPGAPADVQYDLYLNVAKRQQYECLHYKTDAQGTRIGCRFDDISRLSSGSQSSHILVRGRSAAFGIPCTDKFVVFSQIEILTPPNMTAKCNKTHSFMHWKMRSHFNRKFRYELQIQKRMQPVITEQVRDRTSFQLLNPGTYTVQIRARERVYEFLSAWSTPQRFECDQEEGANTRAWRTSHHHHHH

[3] = target: T3, soluble human IL-3Rα 1-306-His P88A (human, UniProt P26951 19-307)
T3 construct: supernatant of 293FS cells; also called P88, soluble alanine
T3 sequence: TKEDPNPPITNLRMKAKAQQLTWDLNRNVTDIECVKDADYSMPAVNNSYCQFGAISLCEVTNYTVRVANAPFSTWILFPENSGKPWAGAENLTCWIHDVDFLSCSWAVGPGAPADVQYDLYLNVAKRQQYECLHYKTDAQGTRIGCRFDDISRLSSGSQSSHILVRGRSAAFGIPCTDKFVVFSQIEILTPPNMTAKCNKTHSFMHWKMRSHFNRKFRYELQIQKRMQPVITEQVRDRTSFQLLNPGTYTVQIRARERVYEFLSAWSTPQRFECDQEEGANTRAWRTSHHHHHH

[4] = target: T4, soluble human IL-3Rα 1-306-His E51A (human, UniProt P26951 19-307)
T4 construct: supernatant of 293FS cells; also called E51, soluble alanine
T4 sequence: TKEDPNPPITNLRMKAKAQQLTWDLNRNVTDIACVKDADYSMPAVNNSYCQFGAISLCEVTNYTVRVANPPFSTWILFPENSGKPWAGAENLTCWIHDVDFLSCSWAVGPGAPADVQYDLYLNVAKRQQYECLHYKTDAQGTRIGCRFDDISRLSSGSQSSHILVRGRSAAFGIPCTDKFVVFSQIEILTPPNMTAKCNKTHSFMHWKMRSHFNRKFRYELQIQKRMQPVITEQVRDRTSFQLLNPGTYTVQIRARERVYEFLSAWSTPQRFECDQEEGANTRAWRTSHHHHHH

[5] = target: T5, soluble human IL-3Rα 1-306-His W93A (human, UniProt P26951 19-307)
T5 construct: supernatant of 293FS cells; also called W93, soluble alanine
T5 sequence: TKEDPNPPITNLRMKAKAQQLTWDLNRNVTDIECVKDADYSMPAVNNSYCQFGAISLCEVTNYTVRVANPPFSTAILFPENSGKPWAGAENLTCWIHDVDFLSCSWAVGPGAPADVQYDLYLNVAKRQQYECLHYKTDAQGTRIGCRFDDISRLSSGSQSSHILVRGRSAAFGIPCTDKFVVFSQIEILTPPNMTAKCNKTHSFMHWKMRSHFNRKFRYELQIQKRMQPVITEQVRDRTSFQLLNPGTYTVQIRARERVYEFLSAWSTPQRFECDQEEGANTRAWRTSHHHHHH

[6] = target: T6, soluble human IL-3Rα 1-306-His I50A (human, UniProt P26951 19-307)
T6 construct: supernatant of 293FS cells; also called I50, soluble alanine
T6 sequence: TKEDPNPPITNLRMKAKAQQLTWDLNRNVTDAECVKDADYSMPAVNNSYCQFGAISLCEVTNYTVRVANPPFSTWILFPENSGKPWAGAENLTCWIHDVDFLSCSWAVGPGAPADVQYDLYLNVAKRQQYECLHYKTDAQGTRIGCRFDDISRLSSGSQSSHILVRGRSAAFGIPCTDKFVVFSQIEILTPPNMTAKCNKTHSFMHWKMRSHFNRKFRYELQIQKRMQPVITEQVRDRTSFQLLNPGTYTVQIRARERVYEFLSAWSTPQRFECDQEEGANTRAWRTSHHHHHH

[7] = target: T7, soluble human IL-3Rα 1-306-His R84A (human, UniProt P26951 19-307)
T7 construct: supernatant of 293FS cells; also called R84, soluble alanine
T7 sequence: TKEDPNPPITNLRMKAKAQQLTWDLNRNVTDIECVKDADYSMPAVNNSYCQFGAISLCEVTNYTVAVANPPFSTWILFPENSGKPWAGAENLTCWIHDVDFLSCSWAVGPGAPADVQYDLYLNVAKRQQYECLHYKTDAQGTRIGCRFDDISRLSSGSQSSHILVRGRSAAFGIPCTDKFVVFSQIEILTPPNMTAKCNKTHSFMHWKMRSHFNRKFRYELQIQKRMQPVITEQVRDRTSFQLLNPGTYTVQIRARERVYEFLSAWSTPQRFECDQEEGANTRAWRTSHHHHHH

binding result [1]: no binding
binding result [2]: no binding
binding result [3]: no binding
binding result [4]: no binding
binding result [5]: no binding
binding result [6]: no binding
binding result [7]: no binding
B1: antibody CSL362 (antibody, V domains shown)
VH: EVQLVQSGAEVKKPGESLKISCKGSGYSFTDYYMKWARQMPGKGLEWMGDIIPSNGATFYNQKFKGQVTISADKSISTTYLQWSSLKASDTAMYYCARSHLLRASWFAYWGQGTMVTVSS
VL: DIVMTQSPDSLAVSLGERATINCESSQSLLNSGNQKNYLTWYQQKPGQPPKPLIYWASTRESGVPDRFSGSGSGTDFTLTISSLQAEDVAVYYCQNDYSYPYTFGQGTKLEIKR
